Patent US20050003416

T1: SolCorin-EK (soluble modified human corin, zymogen)
T1 sequence: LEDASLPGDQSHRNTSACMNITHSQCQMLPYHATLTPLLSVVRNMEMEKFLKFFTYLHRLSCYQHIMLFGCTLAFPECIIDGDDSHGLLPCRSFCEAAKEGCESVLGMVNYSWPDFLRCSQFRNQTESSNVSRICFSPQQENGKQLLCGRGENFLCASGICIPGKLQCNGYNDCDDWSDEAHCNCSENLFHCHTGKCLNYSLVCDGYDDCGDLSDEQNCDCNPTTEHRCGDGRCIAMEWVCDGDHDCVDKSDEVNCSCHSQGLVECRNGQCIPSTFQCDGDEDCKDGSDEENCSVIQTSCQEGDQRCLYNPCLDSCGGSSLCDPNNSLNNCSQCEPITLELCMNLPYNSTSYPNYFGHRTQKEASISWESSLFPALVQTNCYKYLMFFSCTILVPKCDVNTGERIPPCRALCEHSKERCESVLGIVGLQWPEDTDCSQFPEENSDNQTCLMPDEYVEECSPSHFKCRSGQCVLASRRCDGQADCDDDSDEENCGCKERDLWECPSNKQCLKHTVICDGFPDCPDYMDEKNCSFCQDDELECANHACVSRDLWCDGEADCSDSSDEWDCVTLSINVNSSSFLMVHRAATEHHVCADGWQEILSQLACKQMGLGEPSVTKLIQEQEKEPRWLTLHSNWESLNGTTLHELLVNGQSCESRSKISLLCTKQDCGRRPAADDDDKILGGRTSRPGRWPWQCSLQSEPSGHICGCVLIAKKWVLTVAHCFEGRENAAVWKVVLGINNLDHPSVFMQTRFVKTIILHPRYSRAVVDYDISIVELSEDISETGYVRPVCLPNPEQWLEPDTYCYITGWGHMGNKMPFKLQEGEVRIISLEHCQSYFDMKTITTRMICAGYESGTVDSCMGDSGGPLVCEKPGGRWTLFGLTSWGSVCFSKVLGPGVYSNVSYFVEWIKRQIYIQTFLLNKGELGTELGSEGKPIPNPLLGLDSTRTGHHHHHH

T2: SolCorinPD-EK (soluble modified human corin protease domain, zymogen)
T2 sequence: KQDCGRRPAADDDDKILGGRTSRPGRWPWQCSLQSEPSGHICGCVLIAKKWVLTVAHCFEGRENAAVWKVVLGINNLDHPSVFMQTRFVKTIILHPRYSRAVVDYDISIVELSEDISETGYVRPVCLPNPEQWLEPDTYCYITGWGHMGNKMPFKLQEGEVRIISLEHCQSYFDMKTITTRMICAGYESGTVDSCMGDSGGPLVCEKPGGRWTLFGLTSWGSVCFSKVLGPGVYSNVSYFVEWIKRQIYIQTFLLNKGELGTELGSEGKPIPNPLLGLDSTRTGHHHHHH

T3: recombinant human wild-type pro-ANP with C-terminal V5 and 6xHis tags, P01160
T3 chain: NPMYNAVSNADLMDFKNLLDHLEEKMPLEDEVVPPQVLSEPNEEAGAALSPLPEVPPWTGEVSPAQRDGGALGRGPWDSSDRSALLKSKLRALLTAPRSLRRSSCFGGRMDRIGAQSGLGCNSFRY

B1: enterokinase-activated SolCorin-EK (protein)
chain 1: LEDASLPGDQSHRNTSACMNITHSQCQMLPYHATLTPLLSVVRNMEMEKFLKFFTYLHRLSCYQHIMLFGCTLAFPECIIDGDDSHGLLPCRSFCEAAKEGCESVLGMVNYSWPDFLRCSQFRNQTESSNVSRICFSPQQENGKQLLCGRGENFLCASGICIPGKLQCNGYNDCDDWSDEAHCNCSENLFHCHTGKCLNYSLVCDGYDDCGDLSDEQNCDCNPTTEHRCGDGRCIAMEWVCDGDHDCVDKSDEVNCSCHSQGLVECRNGQCIPSTFQCDGDEDCKDGSDEENCSVIQTSCQEGDQRCLYNPCLDSCGGSSLCDPNNSLNNCSQCEPITLELCMNLPYNSTSYPNYFGHRTQKEASISWESSLFPALVQTNCYKYLMFFSCTILVPKCDVNTGERIPPCRALCEHSKERCESVLGIVGLQWPEDTDCSQFPEENSDNQTCLMPDEYVEECSPSHFKCRSGQCVLASRRCDGQADCDDDSDEENCGCKERDLWECPSNKQCLKHTVICDGFPDCPDYMDEKNCSFCQDDELECANHACVSRDLWCDGEADCSDSSDEWDCVTLSINVNSSSFLMVHRAATEHHVCADGWQEILSQLACKQMGLGEPSVTKLIQEQEKEPRWLTLHSNWESLNGTTLHELLVNGQSCESRSKISLLCTKQDCGRRPAADDDDK
chain 2: ILGGRTSRPGRWPWQCSLQSEPSGHICGCVLIAKKWVLTVAHCFEGRENAAVWKVVLGINNLDHPSVFMQTRFVKTIILHPRYSRAVVDYDISIVELSEDISETGYVRPVCLPNPEQWLEPDTYCYITGWGHMGNKMPFKLQEGEVRIISLEHCQSYFDMKTITTRMICAGYESGTVDSCMGDSGGPLVCEKPGGRWTLFGLTSWGSVCFSKVLGPGVYSNVSYFVEWIKRQIYIQTFLLNKGELGTELGSEGKPIPNPLLGLDSTRTGHHHHHH
B2: enterokinase-activated SolCorinPD-EK (protein)
chain 1: KQDCGRRPAADDDDK
chain 2: B1 chain 2

Columns and labels:
[1] = test system: T1, SolCorin-EK (soluble modified human corin, zymogen)
[2] = test system: T2, SolCorinPD-EK (soluble modified human corin protease domain, zymogen)
[3] = target: T3, recombinant human wild-type pro-ANP …

| Molecule | cleavage of soluble corin by 0, 2, 10, 20 or 40 units enterokinase, 25 C, 4 hrs (anti-V5 Western blot) [1] | cleavage of soluble corin by 0, 2, 10, 20 or 40 units enterokinase, 25 C, 4 hrs (anti-V5 Western blot) [2] | processing of pro-ANP to ANP in mixed conditioned media, 4 C, 3 hours (anti-V5 immunoprecipitation and Western blot) [3] |
| --- | --- | --- | --- |
| purified enterokinase (Calbiochem) | both the long form (SolCorin-EK) and short form (SolCorinPD-EK) of soluble modified human corin were cleaved by exposure to enterokinase in a dose-dependent manner | both the long form (SolCorin-EK) and short form (SolCorinPD-EK) of soluble modified human corin were cleaved by exposure to enterokinase in a dose-dependent manner |  |
| B1 |  |  | pro-ANP was processed to ANP by the long form (SolCorin-EK), but not the short form (SolCorin-PD-EK), of soluble modified human corin upon activation by enterokinase in vitro |
| B2 |  |  | pro-ANP was processed to ANP by the long form (SolCorin-EK), but not the short form (SolCorin-PD-EK), of soluble modified human corin upon activation by enterokinase in vitro |
